This passage reports EC50 and Kd results from US20250195685A1 (CAPSTAN THERAPEUTICS, published 2025).

In assay [1] the target is T1, human CD8 on cells (CD8-overexpressing HEK293T cells, SupT1, HPB-ALL, human T cells, transfected HEK293 of … (human, UniProt P01732 22-235)).
T1 construct: whole, on cells; also called cell surface CD8
Briefly: flow cytometry on CD8-overexpressing HEK293T cells, non-linear fit of normalized gMFI. The method, then: To obtain the results shown in FIG. 3A, that determined EC₅₀ values for antigen-specific binding, CD8-overexpressing HEK293T cells were dissociated in Versine solution (PBS buffer at pH 7.4 supplemented with 0.5 mM EDTA), and 2×10⁵ total cells were transferred to a V-bottom 96 well culture plate (Corning). Cells were washed twice with Cell Staining buffer (#420201, Biolegend). Each anti-CD8α antibody with human IgG1 isotype and Fc-silencing mutations L234A, L235A and P329A was diluted in four-fold antibody titration series from 100 μg/mL to 6.1 ng/ml into Cell Staining buffer. eFluor 780 Fixable Viability dye (eBioscience) was also included during antibody solutions at a 1:4000 dilution. Cells were stained with each diluted antibody solution for 30 minutes on ice. Cells were then washed three times with Cell Staining buffer and primary antibody binding was detected by staining with anti-human Fc BV421 conjugate antibody (#410704, Biolegend) at 1:100 dilution for 30 minutes on ice. After staining with the secondary detection antibody, cells were washed three times with Cell Staining buffer, fixed in FluoroFix buffer (Biolegend) and kept at 4° C. in the dark until analysis. Flow cytometry analysis on each sample was performed on an Agilent NovoCyte flow cytometer. Flow cytometry data was analyzed by Flowjo 10 (Becton, Dickinson & Company) to measure the geometric median fluorescence intensity (gMFI) of the on-cell binding from each antibody. The gMFI values were normalized with the gMFI measured in the sample stained with only the secondary detection antibody and plotted against the concentration of the added antibodies. The binding curves were constructed using the Graphpad Prism software, and EC₅₀ values were determined by non-linear curve fitting.
(In general: Flow cytometry measures light scatter and fluorescence of single cells or particles in a stream.)

Assay [2] has as its target T2, human CD8αα homodimer, recombinant protein (Acro Biosystems) (human, UniProt P01732 22-182).
T2 construct: also called CD8αα antigen; biotinylated CD8α recombinant protein (CDA-H82E3)
The assay can be described thus: BLI steady state, whole hIgG1-LALAPA antibody on CD8α-His (Ni-NTA sensor), 30 °C. As for the experimental part: (§1) To assess affinity of whole antibodies, steady state analysis was used as the bivalent nature of both whole antibody and CD8α complicates kinetic analysis. 50 nM CD8α-His (that is, CD8α with a C-terminal oligohistidine tag; Acro) was immobilized on Ni-NTA sensor probes. Binding was analyzed with a three-fold antibody dilutions series: 60 nM, 20 nM, 6.67 nM, 2.22 nM, 0.74 nM, and 0.25 nM. The antigen-loaded sensors were incubated in the diluted solutions to capture the whole IgG antibody for 300 s to record the association phase. Sensors were incubated in the kinetic buffer for 900 s to record the dissociation phase. The spin speed was 1000 rpm for all steps except the antigen loading step which was 400 rpm to control density of the antigen. The temperature of the performed assays was at 30° C. during the association and dissociation phases. The sensor data were baseline subtracted and further analyzed in GatorOne software (version 2.10) to determine the equilibrium dissociation constants (KD) of the antibodies by fitting the signals of the steady states to the 1:1 binding model.

Assay [3] concerns the target T2, human CD8αα homodimer, recombinant …. The description is as above. As for the experimental part: as §1
This is another data set of the same source.

Read-outs that look alike come from different tables or passages of the source.

T1 sequence (P01732 22-235): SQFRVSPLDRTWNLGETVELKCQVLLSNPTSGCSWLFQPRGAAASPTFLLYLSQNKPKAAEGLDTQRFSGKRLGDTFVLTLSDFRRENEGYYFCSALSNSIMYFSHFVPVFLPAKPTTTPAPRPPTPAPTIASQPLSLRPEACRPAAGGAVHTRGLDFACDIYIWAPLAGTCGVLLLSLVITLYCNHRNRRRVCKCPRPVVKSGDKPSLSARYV
T2 sequence (P01732 22-182 limits assumed): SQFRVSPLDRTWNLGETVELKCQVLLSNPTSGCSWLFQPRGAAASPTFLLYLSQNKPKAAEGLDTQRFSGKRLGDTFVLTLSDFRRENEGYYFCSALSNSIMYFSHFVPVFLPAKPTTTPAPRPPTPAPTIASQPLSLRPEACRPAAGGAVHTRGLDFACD

B1: CBD1036-hIgG1-LALAPA (antibody, V domains shown)
VH: QVQLVQSGAEVKKPGASVKISCKASRYTFTDYNLHWVRQAPGQGLEWIGFIYPYNGGTGYAQKFQGRATLTVDTSTSTAYMELSSLRSEDTAVYYCARDHRYNEGVSFDYWGQGTTLTVSS
VL: DIQLTQSPSSLSASVGDRATITCRASESVDGFGNSFMNWYQQKPGKAPKLLIYLASNLESGVPSRFSGSGSRTDFTLTISSVQPEDFATYYCQQNNEDPYTFGQGTKLEIKR
notes: also called h1017-H3/L3 whole antibody
As usually defined, the EC50 is the concentration at which the effect is half-maximal. As a reminder, the Kd is a measure of binding affinity in units of concentration. B1: in assay [1], a half-maximal effect (EC50) was put at 2.69 nM. In addition, the dissociation constant (Kd) in assay [2] is 5.15 nM.

B2: CBD1038-hIgG1-LALAPA (antibody, V domains shown)
VH: QVQLVQSGAEVKKPGASVKVSCKASRYTFTDYNLHWVRQAPGQGLEWMGFIYPYNGGTGYAQKFQGRVTMTVDYSTSTAYMELSSLRSEDTAVYYCARDHRYNEGVSFDYWGQGTTVTVSS
VL: DIQLTQSPSSLSASVGDRATITCRASESVDGFGNSFMNWYQQKPGKAPKLLIYLASNLESGVPSRFSGSGSRTDFTLTISSVQPEDFATYYCQQNNEDPYTFGQGTKLEIKR
notes: also called h1017-H4/L3 whole antibody
Molecule B2 gave a 50% effective concentration (EC50) in assay [1] of 2.57 nM. Also, in assay [2], the equilibrium dissociation constant (Kd) came out at 4.74 nM.

B3: CBD1048 (antibody, human IgG1, kappa, L234A L235A, V domains shown)
VH: QVQLVQSGAEVKKPGASVKVSCKASRYTFTDYNLHWVRQAPGQGLEWMGFIYPYNGGTGYAQKFQGRVTLTVDYSTSTAYMELSSLRSEDTAVYYCARDHRYNEGVSFDYWGQGTLVTVSS
VL: EIVLTQSPGTLSLSPGERATLSCRASESVDGFGNSFMNWYQQKPGQAPRLLIYLASNLESGVPARFSGSGSRTDFTLTISRLEPEDFAVYYCQQNNEDPYTFGQGTKVEIKR
notes: also called h1017-H9/L6 whole antibody hIgG1-LALAPA
Turning to B3, the equilibrium dissociation constant (Kd) in assay [3] was 5.45 nM.

B4: CBD1046 (antibody, human IgG1, kappa, L234A L235A, V domains shown)
VH: QVQLVQSGAEVKKPGASVKVSCKASRYTFTDYNLHWVRQAPGQGLEWIGFIYPYNGGTGYAQKFKGRVTITADTSTSTAYMELSSLRSEDTAVYYCARDHRYNEGVSFDYWGQGTLVTVSS
VL: EIVLTQSPGTLSLSPGERATLSCRASESVDGFGNSFMNWYQQKPGQAPRLLIYLASNLESGVPARFSGSGSRTDFTLTISRLEPEDFAVYYCQQNNEDPYTFGQGTKVEIKR
notes: also called h1017-H8/L6 whole antibody hIgG1-LALAPA
B4: the Kd in assay [3] came out at 9.78 nM.

B5: CBD1044 (antibody, human IgG1, kappa, L234A L235A, V domains shown)
VH: QVQLVQSGAEVKKPGASVKVSCKASRYTFTDYNLHWVRQAPGQGLEWIGFIYPYNGGTGYAQKFQGRVTITADTSTSTAYMELSSLRSEDTAVYYCARDHRYNEGVSFDYWGQGTLVTVSS
VL: EIVLTQSPGTLSLSPGERATLSCRASESVDGFGNSFMNWYQQKPGQAPRLLIYLASNLESGVPARFSGSGSRTDFTLTISRLEPEDFAVYYCQQNNEDPYTFGQGTKVEIKR
notes: also called h1017-H7/L6 whole antibody hIgG1-LALAPA
Regarding B5, the Kd in assay [3] turned out to be 8.65 nM.

B6: CBD1042 (antibody, human IgG1, kappa, L234A L235A, V domains shown)
VH: QVQLVQSGAEVKKPGASVKVSCKASRYTFTDYNLHWVRQAPGQGLEWIGFIYPYNGGTGYAQKFQGRVTITADTSTSTAYMELSSLRSEDTAVYYCARDHRYNEGVSFDYWGQGTLVTVSS
VL: EIVLTQSPGTLSLSPGERATLSCRASESVDGFGNSFMNWYQQKPGQAPRLLIYLASNLESGIPARFSGSGSGTDFTLTISRLEPEDFAVYYCQQNNEDPYTFGQGTKVEIKR
notes: also called h1017-H7/L4 whole antibody hIgG1-LALAPA
Consider B6, for which the dissociation constant Kd in assay [3] worked out at 3.59 nM.

B7: CBD1047 (antibody, human IgG1, kappa, L234A L235A, V domains shown)
VH: QVQLVQSGAEVKKPGASVKVSCKASRYTFTDYNLHWVRQAPGQGLEWMGFIYPYNGGTGYAQKFQGRVTLTVDYSTSTAYMELSSLRSEDTAVYYCARDHRYNEGVSFDYWGQGTLVTVSS
VL: EIVLTQSPGTLSLSPGERATLSCRASESVDGFGNSFMNWYQQKPGQAPRLLIYLASNLESGVPARFSGSGSGTDFTLTISRLEPEDFAVYYCQQNNEDPYTFGQGTKVEIKR
notes: also called h1017-H9/L5 whole antibody hIgG1-LALAPA
For the molecule B7, the Kd in assay [3] was 2.72 nM.

B8: CBD1049 (antibody, human IgG1, kappa, L234A L235A, V domains shown)
VH: QVQLVQSGAEVKKPGASVKVSCKASRYTFTDYNLHWVRQAPGQGLEWIGFIYPYNGGTGYAQKFQGRVTLTVDYSTSTAYMELSSLRSEDTAVYYCARDHRYNEGVSFDYWGQGTLVTVSS
VL: EIVLTQSPGTLSLSPGERATLSCRASESVDGFGNSFMNWYQQKPGQAPRLLIYLASNLESGVPARFSGSGSGTDFTLTISRLEPEDFAVYYCQQNNEDPYTFGQGTKVEIKR
notes: also called h1017-H10/L5 whole antibody hIgG1-LALAPA
B8: the Kd in assay [3] turned out to be 3 nM.

B9: CBD1037-hIgG1-LALAPA (antibody, V domains shown)
VH: QVQLVQSGAEVKKPGASVKVSCKASRYTFTDYNLHWVRQAPGQGLEWMGFIYPYNGGTGYAQKFQGRVTMTVDYSTSTAYMELSSLRSEDTAVYYCARDHRYNEGVSFDYWGQGTTVTVSS
VL: DIQLTQSPSSLSASVGDRATITCRASESVDGFGNSFMNWYQQKPGKAPKLLIYLASNLESGVPSRFSGSGSGTDFTLTISSVQPEDFATYYCQQNNEDPYTFGQGTKLEIKR
notes: also called h1017-H4/L2 whole antibody
As for B9, in assay [1], a half-maximal response (EC50) required 2.42 nM. The equilibrium dissociation constant (Kd) in assay [2] worked out at 2.32 nM.

B10: CBD1050 (antibody, human IgG1, kappa, L234A L235A, V domains shown)
VH: QVQLVQSGAEVKKPGASVKVSCKASRYTFTDYNLHWVRQAPGQGLEWIGFIYPYNGGTGYAQKFQGRVTLTVDYSTSTAYMELSSLRSEDTAVYYCARDHRYNEGVSFDYWGQGTLVTVSS
VL: EIVLTQSPGTLSLSPGERATLSCRASESVDGFGNSFMNWYQQKPGQAPRLLIYLASNLESGVPARFSGSGSRTDFTLTISRLEPEDFAVYYCQQNNEDPYTFGQGTKVEIKR
notes: also called h1017-H10/L6 whole antibody hIgG1-LALAPA
As for B10, the Kd in assay [3] came to 6.41 nM.

B11: CBD1045 (antibody, human IgG1, kappa, L234A L235A, V domains shown)
VH: QVQLVQSGAEVKKPGASVKVSCKASRYTFTDYNLHWVRQAPGQGLEWIGFIYPYNGGTGYAQKFKGRVTITADTSTSTAYMELSSLRSEDTAVYYCARDHRYNEGVSFDYWGQGTLVTVSS
VL: EIVLTQSPGTLSLSPGERATLSCRASESVDGFGNSFMNWYQQKPGQAPRLLIYLASNLESGVPARFSGSGSGTDFTLTISRLEPEDFAVYYCQQNNEDPYTFGQGTKVEIKR
notes: also called h1017-H8/L5 whole antibody hIgG1-LALAPA
As for B11, the Kd in assay [3] was 4.18 nM.

B12: CBD1041 (antibody, human IgG1, kappa, L234A L235A, V domains shown)
VH: QVQLVQSGAEVKKPGASVKVSCKASRYTFTDYNLHWVRQAPGQGLEWMGFIYPYNGGTNYAQKFQGRVTITADTSTSTAYMELSSLRSEDTAVYYCARDHRYNEGVSFDYWGQGTLVTVSS
VL: EIVLTQSPGTLSLSPGERATLSCRASESVDGFGNSFMNWYQQKPGQAPRLLIYLASNLESGIPARFSGSGSGTDFTLTISRLEPEDFAVYYCQQNNEDPYTFGQGTKVEIKR
notes: also called h1017-H6/L4 whole antibody hIgG1-LALAPA
Take B12: in assay [3], the Kd stood at 10.2 nM.
